The nanobody polyreactivity screen of Harvey et al. (2022)

experiment: yeast display, Sf9 membrane polyspecificity reagent, FACS + sequencing; frameworks hold sequencing errors
In short: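 Synthetic nanobody libraries on Saccharomyces cerevisiae BJ5465 were galactose-induced for 36–48 hours, stained 1 hour at 4 °C with 10% biotinylated, detergent-solubilized Sf9 membrane reagent and enriched on streptavidin microbeads. FACS then separated cells into low and high (top ~1%) gates by anti-HA (expression) and streptavidin (reagent binding) fluorescence. Genes were colony-PCR amplified, MiSeq 2 × 250 sequenced and CDR-length filtered. A clone's polyreactivity label is that of its gate of origin.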

Sequence | polyreactivity (PSR sort gate)
QVQLVESGGGLVQAGGSLRLSCAASGFIIPVYAMGWYRQAPGKERELVAAITYSGARTYYADSVKGRFTISRDNAKNTVYLQMNSLKPEDTAVYYCAAAPGYLKYSPGHYGYNYWGQGTQVTVSS | high polyreactivity
QVQLVESGGGLVQAGGSLRLSCAASGSIFPDYAMGWYRQAPGKERELVAADSVKGRFTISRDNAKNTVYLQMNSLKPEDTAVYYCNKDYIIRRGPIVYYGFDYWGQGNQVTVSS | low polyreactivity
QVQLVESGGGLVQAGGSLRLSCAASGSTFSWYAMGWYRQAPGKERELVAAISSGGSTNYADSVKGRFTISRDNAKNTVYLQMNSMKPEDTAVYYCAAVWSRFLISYSTGWWFEYWGQGTKVTVSS | low polyreactivity
QVQLVESGGGLVQAGGSLRLSCAASGSTFVNNAMGWYRQAPGKERELVASITVGGSTYYADSVKGRFTISRDNAKNTVYLQMNSLKPEDTAVYYCNVQYSYYASDYDYWGQGTQVTVSS | low polyreactivity
QVQLVESGGGLVQAGGTLRLSCAPSGRIFGIYDMGWYRQAPGKERELVADIDVSDGSTYYADSVKGRFTISRDNAKNTVYLQMNSMKPEDTAVYYCNAEDSSRWYDWYLHDYWGQGTQVTVSS | high polyreactivity
QVQLVESGGGLVQAGGSLRLSCAASGSIFSSNAMGWYRQAPGKERELVAAITRGGRTTYADSVKGRFTISRDNAKNTVYLQMNSLKPEDTAVYYCAALHGRYPNRYDYWGQGTQVTVSS | low polyreactivity
QVQLVESGGGLVQAGGSLRLSCAASGLTFGRYAMGWYRQAPGKERELVAAISSGGSTYYADSVKGRFTISRDNAKNTVYLQMNSLKPEDTAVYYCAADYVGWYFVSGRDYWGQGTQVTVSS | low polyreactivity
QVQLVESGGGLVQAGGSLRLSCAASGRTFVANVKGWYRQAPGKERELVAGISTRGGRTYYADSVKGRFTISRDNAKNTVYLQMNSLKPEDTAVYYCAVRHYRDSTPRGAYQRYDYWGQGTQVTVSS | low polyreactivity
QVQLQESGGGLVQACGSLRLSCAASGYIFSHQYMGLYRQAPGKERELVASISPGATTNYADSVKGRLTISRDNAKNTVYLQMNSLKPEDTAVYYYAVYQILDRRLSYWGQGTQVTVSC | high polyreactivity
QVQLVESGGGLVQAGGSLRLSCAASGSIFSYYAMAWYRQAPGKERELVAAITWSGTRTYYADSVKGRFTISRDNAKNTVYLQMNSLKPEDTAVYYCAADSSIRDDYWGQGTQVTVSS | low polyreactivity
QVQLVESGGGLVQAGGSLRLSCAPSGRTFRRYAMGWYRQAPGKEMEFVAAISRRTASTYYADSVKGRFTISRDNAKNTDYLQMNSLKPEDTAVYYCATKSGYSVGNYRYGYWVQGTQVTVSS | low polyreactivity
QVQLVESGGGLVQAGGSLRLSCADSVFIFYLNAMGWYRQAPRKERELVATITNRGGSTYFADSVKGRFTISRDNAKNTVYLQMNSLKPEDTAVYYCAARTRERYSKPYFYRRFGYWGQGTQVTVSS | low polyreactivity
QVQLVESGGGLVQAGCSLRLSCAASGRTLKYNAMGGYIQAPGKERELVAAISRSGGRLYYADSVKGRFTMSRDNAKNTVYLQMNSLKPEDTAVYYCAKDRSGSYYNFPEYDYWGQGTQVTVSS | high polyreactivity
QVQLVESGGGLVQAGGSLRLSCAASGRIFDGYAMGWYRQAPGKERELVAAINRSGSSTYYADSVKGRFTISRDNAKNTVYLQMNSLKPEDTAVYYCNARSGNRYGPRYDYWGQGTQVTVSS | high polyreactivity
QVQLVESGGGLVQAGGSLRLSCAASGRIFVTYAMGWYRQAPGKERELVAVISWSGGSTYYADSVKGRITISRDNAKNTVYLQINSLKPEDTAVYYCARGLRKVRFDYWGQGTQVTVSS | low polyreactivity
QVQLEESGGGLVQAGGSLRLSCAASGFIVYYYAMGWYRQAPGKERELVAAISSGDRTYYADSVKGRFTISRDNAKNTVYLQMNSLKREDTAVYYCNALSRNTQLYDYWGQGTQVTVSS | high polyreactivity
QVQLVESGGGLVQAGGSLRLSCAASGFTFYRYTMGWYRQAPGKERELVAAISRGGRTYYADSVKGRFTISRDNAKNTVYLQMNSLKPEDTAVYYCNARYPSADDWGQGTQVTVSS | high polyreactivity
QVQLVESGGGLVQAGGSLRLSCAASGGIFPDYAMGSYRQAPGKERELVAVISDSGGSTYYADSVKGRFTISRDNAKNTVYLQMNSLKPEDTAVYYCAAETEWYYGYYEYWGQGTQVTVSS | high polyreactivity
QVQLVESVGGLVQAGGSLRLSCAASGRIYAMGLYRPAPGKERELVAAISRGGSTYYADSVKGRFTISRDNAKNTVYLQMNSLKPEDSAVYYCARRYASTGYDYWGQGTQVTESS | high polyreactivity
QVQLVESGGGLVQAGGSLRISCAASGSIFPRYAMGWYRQAPGKERELVAAISWRGGRTYYADSVKGRFTISRDNAKNTVYLQMNSLKPEDTAVYYCAARWRQRKSVRYGQQGYDYWGQGTQVTVSS | high polyreactivity
QVQLVESGGGLVQAGASLRLSCAASGFTFGWYAMGWSRQARGKERELVAAISYSGGSTYYADSVKGRFTISRDNAKNTVYLQMISLKPEDTAVYYCAALYTGDSGYWGQGTQVTVSS | high polyreactivity
QVQLVESGGGLVQAGGSLRLSCAASGRTFGPYAMGWYRQAPGKEREFVAAISYSGGSTYYADSVKGRFTISRDNAKNTVYLQMNSLKPEDTAVYYCAVDIDSNSGTRDYWGQGTQVTVSS | low polyreactivity
QVQLVDSGGGLVQAGGSLRLSCAASGFIFYKYAMGWYRQATGKERELVAAISKRGGSTYYADSVKGRFTISRDNAKNTVYLQMNSLKPEYTAVYDCATDGGYSDTVRYVASDYWGQGTQVTVSS | high polyreactivity
QVQLVESGGGLVQAGGSLRLSSPASGYIISTYVMGWYRQAPGKERDLVAAITRSGGSTYYADSVKGRFTISRDNAKNNVYLQMNSLKPEDTAVYYCNAYLYLYGLSGRYDYWGQGTQVTVSS | high polyreactivity
QVQLVESGGGLVQAGGSLRLSWAASGSTFNVYAMGWYRQAPGKERELVAGIRDSDGSTNYADSVKGRFTISRDNAKNTVYLQMNSLKPEDTAVYYCAADLYDINWSVWLDYWGQGTQVTVSS | low polyreactivity
QVQLVESGGGLVQAGGSLRLSCAASGSIFLYYAMGWYTQAPGKERELVASISSTGSTYYADSVKGRFTISRDNAKNTVYLLINSLKPEDTGVYYCAKRRWYYYPRYSLSTQMDYWGQGTQVTVSS | high polyreactivity
QVQLVESGGGLVQAGGSLRLSCAASGSIFYHYAMGWYRQAPGKERELVAAISRSGGRTYYADSVKGRFTISRDNAKNTVYLQMNSLKPEDTAVYYCNKDYYYPNSWPKYDYWGQGTQVTVSS | low polyreactivity
QVQLVESGGGIVQAGGSLRLSCAASGSTFVTNVMGWYRQAPGKERELVAAISYSGGNTYYEDSVKGRFTISRDNANNTVYLHMNSLKPEDTAVYYCNAYRVVHPCEYDYWGQGTQVTVSS | high polyreactivity
QVQLVESGGGLVQAGGSLRLSCAASGITFTRNAMGWYRQAPGKERELVATISGSGGGTYYADSVKGRFTISRDNAKNTVYLQMNSLKPEDTAVYYCNARRWYYWQGTARYDYWGQGTQVTVSS | low polyreactivity
QVQLVESGGGLVQAGGSLRLSCAASGGTFYFYAMGWDRQAPGKERELVAAISRSVGSTYYADSVKGRFTISRDNAKNTVYLQMNSLKPEDTAVYYCAARYTGGGIRYDYWGQGTQVTLSS | high polyreactivity
